Test results taken from the supplement of paper PMC6757056.
± gives the standard deviation of the averaged measurements.

B1: library; a variant is named by its letters at N, in order (parent)
chain: GCUGUCACCGAGAAACUGUGAAGUAUAUCUUAAACCUGGGCACUUAAAAGAUAUAUGGAGUUAGUAGUGCAACCUGCUCGGUCUGAUGAGUCCNNNNNNGGACGAAACAGC

Assays:
cyclic di-GMP [1] = variants of: B1; test: normalized RNA/DNA level without ligand (relative to sTRSVctl = 100) (log10 (% of sTRSVctl)); HEK293T; ligand: cyclic di-GMP (c-di-GMP-II aptamer); higher = less ribozyme self-cleavage, higher mRNA level; settings: reporter: mCherry (pCS4076), ligand present: no
Method in brief: (§1)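 Ribozyme switch library plasmids with mCherry reporters (eGFP in certain ligand experiments) went into HEK293T cells at 4 µg per 6-well well. Where ligand was used, it was applied 1 h before transfection, and total RNA was extracted with EDTA 72 h later for reverse transcription, amplification, barcoding and sequencing. RNA level is the RNA-to-DNA read ratio normalized to a spiked-in non-cleaving sequence or to the leading sequences, then scaled and log-transformed. Scaling was ×100 with log10, the leading set comprised 25 sequences, and the cutoff was ≥100 DNA reads.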

cyclic di-GMP [2] = variants of: B1; test: normalized RNA/DNA level with ligand (relative to sTRSVctl = 100) (log10 (% of sTRSVctl)); HEK293T; ligand: cyclic di-GMP (c-di-GMP-II aptamer); ligand concentration (+) RNA-Seq: 1 mM; higher = less ribozyme self-cleavage, higher mRNA level; settings: reporter: mCherry (pCS4076), ligand present: yes
Method in brief: as §1

Row | Variant | normalized RNA/DNA level without ligand (log10) (cyclic di-GMP [1]) | normalized RNA/DNA level with ligand (log10) (cyclic di-GMP [2])
1 | CGGGCA | 1.81 ± 0.064 | 1.9 ± 0.13
2 | UGGGGU | 1.63 ± 0.056 | 1.77 ± 0.11
3 | UGGGGG | 1.79 ± 0.055 | 1.87 ± 0.09
4 | UGGGGA | 1.58 ± 0.085 | 1.73 ± 0.073
5 | UGGGGC | 1.767 ± 0.012 | 1.91 ± 0.1
6 | CGUAGU | 1.69 ± 0.041 | 1.82 ± 0.13
7 | CGUAGA | 1.44 ± 0.016 | 1.64 ± 0.14
8 | CGUAGC | 1.73 ± 0.062 | 1.83 ± 0.055
9 | CGUAGG | 1.71 ± 0.033 | 1.82 ± 0.14
10 | GGUAGA | 1.34 ± 0.04 | 1.55 ± 0.1
11 | GGUAGC | 1.671 ± 0.014 | 1.8 ± 0.12
12 | AGGCGU | 1.609 ± 0.0044 | 1.76 ± 0.12
13 | AGGCGA | 1.56 ± 0.037 | 1.67 ± 0.13
14 | AGGCGC | 1.74 ± 0.075 | 1.86 ± 0.088
15 | AGGCGG | 1.79 ± 0.026 | 1.88 ± 0.063
16 | UGUGCC | 1.85 ± 0.074 | 1.94 ± 0.14
17 | UGUGCA | 1.77 ± 0.02 | 1.87 ± 0.073
18 | UGUGCU | 1.71 ± 0.071 | 1.87 ± 0.089
19 | UGUGCG | 1.804 ± 0.0083 | 1.93 ± 0.059
20 | GGGUUC | 1.79 ± 0.072 | 1.89 ± 0.12
21 | CGUGAG | 1.7 ± 0.026 | 1.83 ± 0.05
22 | CGUCAC | 1.63 ± 0.065 | 1.78 ± 0.062
23 | CGUCAU | 1.46 ± 0.042 | 1.64 ± 0.13
24 | CGUCAG | 1.79 ± 0.056 | 1.92 ± 0.11

Row | Variant | normalized RNA/DNA level without ligand (log10) (cyclic di-GMP [1]) | normalized RNA/DNA level with ligand (log10) (cyclic di-GMP [2])
25 | AGUAGC | 1.618 ± 0.0046 | 1.8 ± 0.12
26 | AGGCCU | 1.768 ± 0.013 | 1.89 ± 0.099
27 | UGGCGG | 1.854 ± 0.013 | 1.93 ± 0.13
28 | UGGCGA | 1.597 ± 0.0046 | 1.74 ± 0.11
29 | UGGCGC | 1.818 ± 0.018 | 1.9 ± 0.14
30 | UGGCGU | 1.6 ± 0.03 | 1.81 ± 0.16
31 | UGUGAA | 1.658 ± 0.012 | 1.85 ± 0.078
32 | UGUGAG | 1.7 ± 0.038 | 1.87 ± 0.07
33 | CGUCUG | 1.727 ± 0.015 | 1.83 ± 0.064
34 | UGGCUA | 1.719 ± 0.003 | 1.87 ± 0.11
35 | UGGCUU | 1.694 ± 0.014 | 1.88 ± 0.058
36 | UGGCUG | 1.836 ± 0.013 | 1.9 ± 0.095
37 | UGGCUC | 1.78 ± 0.047 | 1.92 ± 0.077
38 | AGGUUU | 1.7 ± 0.04 | 1.85 ± 0.11
39 | AGGUUA | 1.54 ± 0.037 | 1.64 ± 0.18
40 | AGGUUG | 1.7 ± 0.022 | 1.77 ± 0.1
41 | AGGUUC | 1.75 ± 0.026 | 1.86 ± 0.14
42 | UGUCCG | 1.856 ± 0.0053 | 1.95 ± 0.042
43 | UGUCCC | 1.81 ± 0.072 | 1.88 ± 0.17
44 | UGUCCA | 1.8 ± 0.013 | 1.87 ± 0.068
45 | UGGGAG | 1.673 ± 0.012 | 1.79 ± 0.14
46 | UGGGAC | 1.697 ± 0.01 | 1.84 ± 0.078
47 | UGGGAU | 1.55 ± 0.12 | 1.75 ± 0.11
48 | GGUGAU | 1.67 ± 0.041 | 1.76 ± 0.057

Row | Variant | normalized RNA/DNA level without ligand (log10) (cyclic di-GMP [1]) | normalized RNA/DNA level with ligand (log10) (cyclic di-GMP [2])
49 | GGUGAA | 1.34 ± 0.076 | 1.61 ± 0.07
50 | GGUGAC | 1.75 ± 0.0083 | 1.86 ± 0.14
51 | CGUAAG | 1.77 ± 0.056 | 1.86 ± 0.12
52 | CGUAAC | 1.557 ± 0.0076 | 1.72 ± 0.091
53 | AGGGUA | 1.53 ± 0.035 | 1.6 ± 0.12
54 | AGGGUG | 1.64 ± 0.046 | 1.7 ± 0.12
55 | AGGGUU | 1.6902 ± 0.0014 | 1.77 ± 0.056
56 | AGGGUC | 1.71 ± 0.07 | 1.85 ± 0.18
57 | CGGGUU | 1.748 ± 0.012 | 1.82 ± 0.13
58 | CGGUGG | 1.66 ± 0.066 | 1.79 ± 0.1
59 | CGGUGC | 1.785 ± 0.007 | 1.9 ± 0.12
60 | AGGGCA | 1.756 ± 0.017 | 1.81 ± 0.048
61 | AGGGCC | 1.84 ± 0.052 | 1.93 ± 0.068
62 | AGGGCG | 1.78 ± 0.0082 | 1.84 ± 0.11
63 | AGGGCU | 1.69 ± 0.034 | 1.85 ± 0.088
64 | CGGUUC | 1.55 ± 0.028 | 1.75 ± 0.069
65 | CGGUUG | 1.68 ± 0.14 | 1.812 ± 0.013
66 | CGGUUU | 1.6584 ± 0.0015 | 1.75 ± 0.1
67 | AGGCUC | 1.78 ± 0.034 | 1.87 ± 0.087
68 | AGGCUG | 1.774 ± 0.0035 | 1.87 ± 0.051
69 | AGGCUA | 1.51 ± 0.084 | 1.65 ± 0.095
70 | UGGUAG | 1.66 ± 0.035 | 1.82 ± 0.13
71 | UGGUAU | 1.661 ± 0.013 | 1.82 ± 0.13
72 | UGGUAA | 1.56 ± 0.095 | 1.79 ± 0.096

Row | Variant | normalized RNA/DNA level without ligand (log10) (cyclic di-GMP [1]) | normalized RNA/DNA level with ligand (log10) (cyclic di-GMP [2])
73 | UGGUAC | 1.684 ± 0.015 | 1.83 ± 0.092
74 | UGUCAU | 1.68 ± 0.049 | 1.81 ± 0.1
75 | UGUCAG | 1.67 ± 0.042 | 1.82 ± 0.1
76 | UGUCAC | 1.75 ± 0.04 | 1.87 ± 0.15
77 | UGUCAA | 1.69 ± 0.048 | 1.82 ± 0.096
78 | AGGUCG | 1.738 ± 0.013 | 1.82 ± 0.11
79 | AGGUCU | 1.73 ± 0.045 | 1.85 ± 0.14
80 | AGGUCC | 1.86 ± 0.022 | 1.94 ± 0.08
81 | UGUAGA | 1.67 ± 0.045 | 1.82 ± 0.12
82 | UGUAGG | 1.72 ± 0.035 | 1.85 ± 0.072
83 | UGUAGC | 1.73 ± 0.043 | 1.83 ± 0.15
84 | AGGGAU | 1.54 ± 0.084 | 1.74 ± 0.086
85 | AGGGAC | 1.55 ± 0.12 | 1.7 ± 0.16
86 | AGGGAA | 1.41 ± 0.11 | 1.53 ± 0.061
87 | GGGUGC | 1.749 ± 0.006 | 1.85 ± 0.093
88 | UGGGCC | 1.94 ± 0.036 | 1.97 ± 0.081
89 | UGGGCA | 1.835 ± 0.0077 | 1.93 ± 0.08
90 | UGGGCU | 1.81 ± 0.042 | 1.89 ± 0.089
91 | UGGGCG | 1.84 ± 0.035 | 1.92 ± 0.13
92 | GGUACC | 1.82 ± 0.038 | 1.93 ± 0.12
93 | GGUACA | 1.52 ± 0.034 | 1.73 ± 0.051
94 | GGUACG | 1.661 ± 0.0037 | 1.821 ± 0.013
95 | GGUACU | 1.71 ± 0.067 | 1.82 ± 0.16
96 | AGUAUC | 1.68 ± 0.022 | 1.81 ± 0.13

Row | Variant | normalized RNA/DNA level without ligand (log10) (cyclic di-GMP [1]) | normalized RNA/DNA level with ligand (log10) (cyclic di-GMP [2])
97 | AGUAUA | 1.47 ± 0.015 | 1.69 ± 0.11
98 | AGUAUU | 1.68 ± 0.037 | 1.83 ± 0.1
99 | AGUAUG | 1.54 ± 0.085 | 1.75 ± 0.087
100 | AGGGGU | 1.57 ± 0.058 | 1.7 ± 0.13
101 | AGGGGC | 1.69 ± 0.1 | 1.83 ± 0.091
102 | AGGGGG | 1.72 ± 0.026 | 1.81 ± 0.075
103 | AGGGGA | 1.53 ± 0.1 | 1.59 ± 0.054
104 | CGGCGU | 1.726 ± 0.013 | 1.91 ± 0.16
105 | CGGCGA | 1.49 ± 0.068 | 1.67 ± 0.11
106 | CGGCGG | 1.68 ± 0.059 | 1.81 ± 0.077
107 | GGUAUG | 1.59 ± 0.093 | 1.74 ± 0.04
108 | GGUAUU | 1.61 ± 0.056 | 1.8 ± 0.11
109 | GGUAUA | 1.5 ± 0.066 | 1.72 ± 0.025
110 | AGUACA | 1.51 ± 0.038 | 1.67 ± 0.059
111 | AGUACU | 1.7515 ± 2.5e-05 | 1.85 ± 0.089
112 | AGUACC | 1.66 ± 0.018 | 1.86 ± 0.15
113 | AGUACG | 1.58 ± 0.046 | 1.74 ± 0.065
114 | GGUCUC | 1.73 ± 0.075 | 1.87 ± 0.12
115 | GGUCUU | 1.64 ± 0.039 | 1.79 ± 0.13
116 | GGUCUA | 1.52 ± 0.046 | 1.72 ± 0.039
